Experimental data: the supplement of paper PMC11780869

Tested on: Bacillus subtilis
Assay: cleaved RNA product abundance (RNA/gDNA barcode ratio) relative to median wild-type variant (ratio to wild type); higher = more accumulation of the downstream cleavage product
Conditions: cleavage site: cggR-gapA (positions -7 to +36 mutated)
Method in brief: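 Oligos with a 9% error rate were used to build barcoded, mutagenized RNase Y cleavage-site windows within truncated aprE or tetM reporter mRNAs, which were integrated into the B. subtilis chromosome. Cultures were grown in LB at 37°C between OD600 0.0003 and 0.3. Cleaved RNA was gel-selected, reverse transcribed and barcode-sequenced, as were genomic DNA barcodes, and UMIs were collapsed. Cleaved product abundance is the scaled RNA:gDNA barcode ratio, with the median construct carrying the unmutated site as reference.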

[1] = experiment (reporter, strain, medium): exp 4a: truncated aprE reporter, strain BJT201 with 2% xylose (RNase J1 expressed)
[2] = experiment (reporter, strain, medium): exp 2b: truncated aprE reporter, strain BJT200
[3] = experiment (reporter, strain, medium): exp 6: tetM reporter, strain 168

ACAGACGAAGGAGCCGCAAAGAAGTTATTAAGGGCTGAATAATCCCTTAATATAAATATCTCTCACTTATTTAAA
cleaved RNA product abundance [1]: 0.626

ACAGACGAAGGAGCCGCAAAGAAGTTATTAAGGGCTGAATAATTCCTCAATATAAATATCTCTCACTTATTTAAA
cleaved RNA product abundance [2]: 0.0668

ACAGACGAAGGAGCCGCAAAGAAGTTATTAAGGGCTGAATATTCCCTCAATATAAATATCTCTCACTTATTTAAA
cleaved RNA product abundance [2]: 0.228 | cleaved RNA product abundance [1]: 0.16

ACAGACGAAGGAGCCGCAAAGAAGTTATTAAGGGCTGTATAATCCCTCAATATAAATATCTCTCACTTATTTAAA
cleaved RNA product abundance [1]: 0.54

ACAGACGAAGGAGCCGCAAAGAAGTTATTAAGGGCTTAATAATCCCTCAATATAAATATCTCTCACTTATTTAAA
cleaved RNA product abundance [1]: 0.481

ACAGACGAAGGAGCCGCAAAGAAGTTATTAAGGGGATGAATAATCCCTCAATATAAATATCTCTCACTTATTTAA
cleaved RNA product abundance [1]: 0.237

ACAGACGAAGGAGCCGCAAAGAAGTTATTAAGGGGTAAATAATCCCTCAATATAAATATCTCTCACTTATTTAAA
cleaved RNA product abundance [1]: 0.708

ACAGACGAAGGAGCCGCAAAGAAGTTATTAAGGGGTCAATAATCCCTCAATATAAATATCTCTCACTTATTTAAA
cleaved RNA product abundance [1]: 0.611

ACAGACGAAGGAGCCGCAAAGAAGTTATTAAGGGGTGAAAAATCCCTCAATATAAATATCTCTCACTTATTTAAA
cleaved RNA product abundance [1]: 0.504

ACAGACGAAGGAGCCGCAAAGAAGTTATTAAGGGGTGAATAATCCCTAAATATAAATATCTCTCACTTATTTAAA
cleaved RNA product abundance [1]: 0.554

ACAGACGAAGGAGCCGCAAAGAAGTTATTAAGGGGTGAATAATCCCTCAATATAAATACCTCTCACTTATTTAAA
cleaved RNA product abundance [1]: 0.623

ACAGACGAAGGAGCCGCAAAGAAGTTATTAAGGGGTGAATAATCCCTCAATATAAATATCTCTCACTTATTTAAA
cleaved RNA product abundance [2]: 0.652 | cleaved RNA product abundance [1]: 0.741 | cleaved RNA product abundance [3]: 0.741

ACAGACGAAGGAGCCGCAAAGAAGTTATTAAGGGGTGAATAATCCGTCAATATAAATATCTCTCACTTATTTAAA
cleaved RNA product abundance [2]: 0.159 | cleaved RNA product abundance [1]: 0.0683

ACAGACGAAGGAGCCGCAAAGAAGTTATTAAGGGGTGAATAATCCTTCAATATAAATATCTCTCACTTATTTAAA
cleaved RNA product abundance [1]: 0.266

ACAGACGAAGGAGCCGCAAAGAAGTTATTAAGGGGTGAATAATTCCTCAATATAAATATCTCTCACTTATTTAAA
cleaved RNA product abundance [1]: 0.228

ACAGACGAAGGAGCCGCAAAGAAGTTATTAAGGGGTGAATACTCCCTCAATATAAATATCTCTCACTTATTTAAA
cleaved RNA product abundance [1]: 0.256

ACAGACGAAGGAGCCGCAAAGAAGTTATTAAGGGTAGAATAATCCCTCAATATAAATATCTCTCACTTATTTAAA
cleaved RNA product abundance [2]: 0.172 | cleaved RNA product abundance [1]: 0.293

ACAGACGAAGGAGCCGCAAAGAAGTTATTAAGGGTCGAATAATCCCTCAATATAAATATCTCTCACTTATTTAAA
cleaved RNA product abundance [1]: 0.211

ACAGACGAAGGAGCCGCAAAGAAGTTATTAAGGGTTAAATAATCCCTCAATATAAATATCTCTCACTTATTTAAA
cleaved RNA product abundance [1]: 0.753

ACAGACGAAGGAGCCGCAAAGAAGTTATTAAGGGTTGAAAAATCCCTCAATATAAATATCTCTCACTTATTTAAA
cleaved RNA product abundance [1]: 0.565

ACAGACGAAGGAGCCGCAAAGAAGTTATTAAGGGTTGAACAATCCCTCAATATAAATATCTCTCACTTATTTAAA
cleaved RNA product abundance [2]: 0.387

ACAGACGAAGGAGCCGCAAAGAAGTTATTAAGGGTTGAATAAACCCTCAATATAAATATCTCTCACTTATTTAAA
cleaved RNA product abundance [2]: 1.07 | cleaved RNA product abundance [1]: 0.406

ACAGACGAAGGAGCCGCAAAGAAGTTATTAAGGGTTGAATAAGCCCTCAATATAAATATCTCTCACTTATTTAAA
cleaved RNA product abundance [1]: 0.608

ACAGACGAAGGAGCCGCAAAGAAGTTATTAAGGGTTGAATAATACCTCAATATAAATATCTCTCACTTATTTAAA
cleaved RNA product abundance [2]: 0.146 | cleaved RNA product abundance [1]: 0.234

ACAGACGAAGGAGCCGCAAAGAAGTTATTAAGGGTTGAATAATCACTCAATATAAATATCTCTCACTTATTTAAA
cleaved RNA product abundance [2]: 0.098 | cleaved RNA product abundance [1]: 0.127

ACAGACGAAGGAGCCGCAAAGAAGTTATTAAGGGTTGAATAATCCATCAATATAAATATCTCTCACTTATTTAAA
cleaved RNA product abundance [1]: 0.205

ACAGACGAAGGAGCCGCAAAGAAGTTATTAAGGGTTGAATAATCCCACAATATAAATATCTCTCACTTATTTAAA
cleaved RNA product abundance [1]: 0.0861

ACAGACGAAGGAGCCGCAAAGAAGTTATTAAGGGTTGAATAATCCCTCAAAATAAATATCTCTCACTTATTTAAA
cleaved RNA product abundance [1]: 0.222

ACAGACGAAGGAGCCGCAAAGAAGTTATTAAGGGTTGAATAATCCCTCAACATAAATATCTCTCACTTATTTAAA
cleaved RNA product abundance [1]: 0.237

ACAGACGAAGGAGCCGCAAAGAAGTTATTAAGGGTTGAATAATCCCTCAATATAAATATCTCTCACTTATTTAAA
cleaved RNA product abundance [2]: 0.396 | cleaved RNA product abundance [1]: 0.483 | cleaved RNA product abundance [3]: 0.439

ACAGACGAAGGAGCCGCAAAGAAGTTATTAAGGGTTGAATAATCCCTCAATATAAATATTTCTCACTTATTTAAA
cleaved RNA product abundance [1]: 0.512

ACAGACGAAGGAGCCGCAAAGAAGTTATTAAGGGTTGAATAATCCCTCAATATAAATCTCTCTCACTTATTTAAA
cleaved RNA product abundance [1]: 0.173

ACAGACGAAGGAGCCGCAAAGAAGTTATTAAGGGTTGAATAATCCCTCAATATAAATTTCTCTCACTTATTTAAA
cleaved RNA product abundance [1]: 0.436

ACAGACGAAGGAGCCGCAAAGAAGTTATTAAGGGTTGAATAATCCCTCAATATACATATCTCTCACTTATTTAAA
cleaved RNA product abundance [1]: 0.404

ACAGACGAAGGAGCCGCAAAGAAGTTATTAAGGGTTGAATAATCCCTCAATATATATATCTCTCACTTATTTAAA
cleaved RNA product abundance [1]: 0.371

ACAGACGAAGGAGCCGCAAAGAAGTTATTAAGGGTTGAATAATCCCTCAATTTAAATATCTCTCACTTATTTAAA
cleaved RNA product abundance [1]: 0.132

ACAGACGAAGGAGCCGCAAAGAAGTTATTAAGGGTTGAATAATCCCTCCATATAAATATCTCTCACTTATTTAAA
cleaved RNA product abundance [1]: 0.0987

ACAGACGAAGGAGCCGCAAAGAAGTTATTAAGGGTTGAATAATCCCTCTATATAAATATCTCTCACTTATTTAAA
cleaved RNA product abundance [2]: 0.157 | cleaved RNA product abundance [1]: 0.151

ACAGACGAAGGAGCCGCAAAGAAGTTATTAAGGGTTGAATAATCCCTGAATATAAATATCTCTCACTTATTTAAA
cleaved RNA product abundance [1]: 0.299

ACAGACGAAGGAGCCGCAAAGAAGTTATTAAGGGTTGAATAATCCCTTAATATAAATATCTCTCACTTATTTAAA
cleaved RNA product abundance [1]: 0.608

ACAGACGAAGGAGCCGCAAAGAAGTTATTAAGGGTTGAATAATCCGTCAATATAAATATCTCTCACTTATTTAAA
cleaved RNA product abundance [1]: 0.187

ACAGACGAAGGAGCCGCAAAGAAGTTATTAAGGGTTGAATAATCCTTCAATATAAATATCTCTCACTTATTTAAA
cleaved RNA product abundance [1]: 0.358

ACAGACGAAGGAGCCGCAAAGAAGTTATTAAGGGTTGAATAATCTCTCAATATAAATATCTCTCACTTATTTAAA
cleaved RNA product abundance [1]: 0.244

ACAGACGAAGGAGCCGCAAAGAAGTTATTAAGGGTTGAATAATTCCTCAATATAAATATCTCTCACTTATTTAAA
cleaved RNA product abundance [1]: 0.1

ACAGACGAAGGAGCCGCAAAGAAGTTATTAAGGGTTGAATCATCCCTCAATATAAATATCTCTCACTTATTTAAA
cleaved RNA product abundance [2]: 0.5

ACAGACGAAGGAGCCGCAAAGAAGTTATTAAGGGTTGAATGATCCCTCAATATAAATATCTCTCACTTATTTAAA
cleaved RNA product abundance [2]: 0.298

ACAGACGAAGGAGCCGCAAAGAAGTTATTAAGGGTTGAGTAATCCCTCAATATAAATATCTCTCACTTATTTAAA
cleaved RNA product abundance [1]: 0.375

ACAGACGAAGGAGCCGCAAAGAAGTTATTAAGGGTTGATTAATCCCTCAATATAAATATCTCTCACTTATTTAAA
cleaved RNA product abundance [2]: 0.287 | cleaved RNA product abundance [1]: 0.409

ACAGACGAAGGAGCCGCAAAGAAGTTATTAAGGGTTGTATAATCCCTCAATATAAATATCTCTCACTTATTTAAA
cleaved RNA product abundance [1]: 0.309

ACAGACGAAGGAGCCGCAAAGAAGTTATTAAGGGTTTAATAATCCCTCAATATAAATATCTCTCACTTATTTAAA
cleaved RNA product abundance [2]: 0.63 | cleaved RNA product abundance [1]: 0.667

ACAGACGAAGGAGCCGCAAAGAAGTTATTAAGGTAAGAATAATCCCTCAATATAAATATCTCTCACTTATTTAAA
cleaved RNA product abundance [1]: 0.0843

ACAGACGAAGGAGCCGCAAAGAAGTTATTAAGGTACGAATAATCCCTCAATATAAATATCTCTCACTTATTTAAA
cleaved RNA product abundance [2]: 0.0971 | cleaved RNA product abundance [1]: 0.106

ACAGACGAAGGAGCCGCAAAGAAGTTATTAAGGTAGGAATAATCCCTCAATATAAATATCTCTCACTTATTTAAA
cleaved RNA product abundance [2]: 0.145 | cleaved RNA product abundance [1]: 0.159

ACAGACGAAGGAGCCGCAAAGAAGTTATTAAGGTATAAATAATCCCTCAATATAAATATCTCTCACTTATTTAAA
cleaved RNA product abundance [2]: 0.0876 | cleaved RNA product abundance [1]: 0.112

ACAGACGAAGGAGCCGCAAAGAAGTTATTAAGGTATAAATAATCCCTCAATATAAATGTCTCTCACTTATTTAAA
cleaved RNA product abundance [1]: 0.11

ACAGACGAAGGAGCCGCAAAGAAGTTATTAAGGTATCAATAATCCCTCAATATAAATATCTCTCACTTATTTAAA
cleaved RNA product abundance [2]: 0.106 | cleaved RNA product abundance [1]: 0.125

ACAGACGAAGGAGCCGCAAAGAAGTTATTAAGGTATGAAAAATCCCTCAATATAAATATCTCTCACTTATTTAAA
cleaved RNA product abundance [2]: 0.0949 | cleaved RNA product abundance [1]: 0.145

ACAGACGAAGGAGCCGCAAAGAAGTTATTAAGGTATGAATAAACCCTCAATATAAATATCTCTCACTTATTTAAA
cleaved RNA product abundance [2]: 0.0972 | cleaved RNA product abundance [1]: 0.124

ACAGACGAAGGAGCCGCAAAGAAGTTATTAAGGTATGAATAACCCCTCAATATAAATATCTCTCACTTATTTAAA
cleaved RNA product abundance [2]: 0.0833 | cleaved RNA product abundance [1]: 0.0618

ACAGACGAAGGAGCCGCAAAGAAGTTATTAAGGTATGAATAAGCCCTCAATATAAATATCTCTCACTTATTTAAA
cleaved RNA product abundance [1]: 0.13
